Read-outs that look alike come from different tables or passages of the source.
B1: full-length mouse ADAMTS-1, v5-epitope tagged (wild type) (protein)
chain: ARGAHGRPTEEDEELVLPSLERAPGHDSTTTRLRLDAFGQQLHLKLQPDSGFLAPGFTLQTVGRSPGSEAQHLDPTGDLAHCFYSGTVNGDPGSAAALSLCEGVRGAFYLQGEEFFIQPAPGVATERLAPAVPEEESSARPQFHILRRRRRGSGGAKCGVMDDETLPTSDSRPESQNTRNQWPVRDPTPQDAGKPSGPGSIRKKRFVSSPRYVETMLVADQSMADFHGSGLKHYLLTLFSVAARFYKHPSIRNSISLVVVKILVIYEEQKGPEVTSNAALTLRNFCSWQKQHNSPSDRDPEHYDTAILFTRQDLCGSHTCDTLGMADVGTVCDPSRSCSVIEDDGLQAAFTTAHELGHVFNMPHDDAKHCASLNGVSGDSHLMASMLSSLDHSQPWSPCSAYMVTSFLDNGHGECLMDKPQNPIKLPSDLPGTLYDANRQCQFTFGEESKHCPDAASTCTTLWCTGTSGGLLVCQTKHFPWADGTSCGEGKWCVSGKCVNKTDMKHFATPVHGSWGPWGPWGDCSRTCGGGVQYTMRECDNPVPKNGGKYCEGKRVRYRSCNIEDCPDNNGKTFREEQCEAHNEFSKASFGNEPTVEWTPKYAGVSPKDRCKLTCEAKGIGYFFVLQPKVVDGTPCSPDSTSVCVQGQCVKAGCDRIIDSKKKFDKCGVCGGNGSTCKKMSGIVTSTRPGYHDIVTIPAGATNIEVKHRNQRGSRNNGSFLAIRAADGTYILNGNFTLSTLEQDLTYKGTVLRYSGSSAALERIRSFSPLKEPLTIQVLMVGHALRPKIKFTYFMKKKTESFNAIPTFSEWVIEEWGECSKTCGSGWQRRVVQCRDINGHPASECAKEVKPASTRPCADLPCPHWQVGDWSPCSKTCGKGYKKRTLKCVSHDGGVLSNESCDPLKKPKHYIDFCTLTQCS

How the values were obtained:
[1] = system: versican in the ECM materials deposited by TA3 transfectants
[2] = target: versican in the ECM materials deposited by TA3 transfectants; remark: listed apart in the source

| Molecule | degradation of versican in ECM of TA3 transfectants (Western blot, anti-DP antibody) [1] | auto-proteolytic cleavage of purified ADAMTS-1 in vitro (Western blot, anti-v5) (P97857) | degradation of versican in ECM of TA3 transfectants (Western blot, anti-DP antibody) [2] |
| --- | --- | --- | --- |
| ADAMTS-1E/Q, protease-dead mutant of mouse ADAMTS-1 (E386 to Q), v5-epitope tagged | expression of ADAMTS-1E/Q but not ADAMTS-1NTF, ADAMTS-1CTF inhibits the degradation | – | – |
| B1 | – | ADAMTS-1 was auto-proteolytically cleaved to release v5-epitope tagged C-terminal cleavage fragments | increased expression of exogenous ADAMTS-1 but not ADAMTS-1minusTSP-1 on top of the endogenous ADAMTS-1 promotes degradation of versican |
